The values below come from patent publication US20250084142A1 (INTARCIA THERAPEUTICS, published 2025).

Starred links: 1 amine or outer side, 2 acyl side, 3 side chain; linkers in the order of their positions; H or OH if unused. Non-standard residues stand in square brackets, D forms with d. Groups on a side chain read outwards from the residue. No end group written: not given here. *: point of attachment. C20 diacid = O=C(O)CCCCCCCCCCCCCCCCCCC(=O)*; Phe(4-F) = N[C@@H](Cc1ccc(F)cc1)C(=O)O; Phe(4-Me) = Cc1ccc(C[C@H](N)C(=O)O)cc1; γGlu = O=C(O)[C@H](CCC(=O)[*:2])N[*:1]; NMeY = CN[C@@H](Cc1ccc(O)cc1)C(=O)O; hPhe = N[C@@H](CCc1ccccc1)C(=O)O

One experiment concerns the target T1, NPY2R.
T1 sequence (P49146 1-381, species assumed, looked up): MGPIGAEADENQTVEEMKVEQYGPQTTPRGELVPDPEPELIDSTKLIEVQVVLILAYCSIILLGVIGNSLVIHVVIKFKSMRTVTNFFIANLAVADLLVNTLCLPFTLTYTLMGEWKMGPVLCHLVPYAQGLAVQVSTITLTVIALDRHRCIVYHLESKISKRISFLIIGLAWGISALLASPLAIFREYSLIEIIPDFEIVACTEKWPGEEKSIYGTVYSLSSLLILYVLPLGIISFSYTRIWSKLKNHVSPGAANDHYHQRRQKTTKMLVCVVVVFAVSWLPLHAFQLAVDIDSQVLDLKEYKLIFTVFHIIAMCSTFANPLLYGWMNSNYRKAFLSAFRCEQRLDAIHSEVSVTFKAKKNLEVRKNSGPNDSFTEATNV
The experiment can be described thus: cell-based or functional assay.

For another experiment, the target named is T2, NPY5R.
T2 sequence (Q15761 1-445, species assumed, looked up): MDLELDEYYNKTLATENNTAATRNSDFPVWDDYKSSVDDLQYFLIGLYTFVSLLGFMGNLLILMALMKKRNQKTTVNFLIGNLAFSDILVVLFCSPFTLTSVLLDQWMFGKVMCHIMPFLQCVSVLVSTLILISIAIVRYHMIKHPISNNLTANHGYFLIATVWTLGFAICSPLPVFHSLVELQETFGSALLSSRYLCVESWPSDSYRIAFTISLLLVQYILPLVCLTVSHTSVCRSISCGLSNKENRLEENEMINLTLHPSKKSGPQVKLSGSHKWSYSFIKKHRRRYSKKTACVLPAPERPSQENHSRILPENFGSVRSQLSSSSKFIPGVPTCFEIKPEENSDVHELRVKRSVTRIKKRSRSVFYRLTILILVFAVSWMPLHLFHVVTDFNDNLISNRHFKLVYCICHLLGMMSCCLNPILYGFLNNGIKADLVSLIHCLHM
In words: cell-based or functional assay.

As for PKPEAPGK([γGlu-γGlu-C20 diacid])DASPEEWNRYYADLRHYLNWLTRQR[Phe(4-Me)]-NH2 [Compound A58], the “NPY2R pEC50” value in the experiment with NPY2R is 10.3 -Log(EC50, M). The “NPY5R pEC50” value in the experiment with NPY5R is 8.8 -Log(EC50, M).

B1: Compound A63 (peptide)
peptide: PKPEAPK([γGlu-γGlu-C20 diacid])KDASPEELNRYYADARHYLNWLTRQR[NMeY]-NH2
modifications: N-terminus assumed
SMILES: CC(C)C[C@H](NC(=O)[C@H](Cc1ccc(O)cc1)NC(=O)[C@H](Cc1c[nH]cn1)NC(=O)[C@H](CCCNC(=N)N)NC(=O)[C@H](C)NC(=O)[C@H](CC(=O)O)NC(=O)[C@H](C)NC(=O)[C@H](Cc1ccc(O)cc1)NC(=O)[C@H](Cc1ccc(O)cc1)NC(=O)[C@H](CCCNC(=N)N)NC(=O)[C@H](CC(N)=O)NC(=O)[C@H](CC(C)C)NC(=O)[C@H](CCC(=O)O)NC(=O)[C@H](CCC(=O)O)NC(=O)[C@@H]1CCCN1C(=O)[C@H](CO)NC(=O)[C@H](C)NC(=O)[C@H](CC(=O)O)NC(=O)[C@H](CCCCN)NC(=O)[C@H](CCCCNC(=O)CC[C@H](NC(=O)CC[C@H](NC(=O)CCCCCCCCCCCCCCCCCCC(=O)O)C(=O)O)C(=O)O)NC(=O)[C@@H]1CCCN1C(=O)[C@H](C)NC(=O)[C@H](CCC(=O)O)NC(=O)[C@@H]1CCCN1C(=O)[C@H](CCCCN)NC(=O)[C@@H]1CCCN1)C(=O)N[C@@H](CC(N)=O)C(=O)N[C@@H](Cc1c[nH]c2ccccc12)C(=O)N[C@@H](CC(C)C)C(=O)N[C@H](C(=O)N[C@@H](CCCNC(=N)N)C(=O)N[C@@H](CCC(N)=O)C(=O)N[C@@H](CCCNC(=N)N)C(=O)N(C)[C@@H](Cc1ccc(O)cc1)C(N)=O)[C@@H](C)O
In the case of B1, the “NPY2R pEC50” value with NPY2R is 7.5 -Log(EC50, M). In addition, the “NPY5R pEC50” value in the experiment with NPY5R is 6 -Log(EC50, M).

B2: Compound A55 (peptide)
peptide: PKPEAPGKDASPEEWK([γGlu-γGlu-C20 diacid])RYYADLRHYLNWLTRQRF-NH2
modifications: N-terminus assumed
SMILES: CC(C)C[C@H](NC(=O)[C@H](CC(=O)O)NC(=O)[C@H](C)NC(=O)[C@H](Cc1ccc(O)cc1)NC(=O)[C@H](Cc1ccc(O)cc1)NC(=O)[C@H](CCCNC(=N)N)NC(=O)[C@H](CCCCNC(=O)CC[C@H](NC(=O)CC[C@H](NC(=O)CCCCCCCCCCCCCCCCCCC(=O)O)C(=O)O)C(=O)O)NC(=O)[C@H](Cc1c[nH]c2ccccc12)NC(=O)[C@H](CCC(=O)O)NC(=O)[C@H](CCC(=O)O)NC(=O)[C@@H]1CCCN1C(=O)[C@H](CO)NC(=O)[C@H](C)NC(=O)[C@H](CC(=O)O)NC(=O)[C@H](CCCCN)NC(=O)CNC(=O)[C@@H]1CCCN1C(=O)[C@H](C)NC(=O)[C@H](CCC(=O)O)NC(=O)[C@@H]1CCCN1C(=O)[C@H](CCCCN)NC(=O)[C@@H]1CCCN1)C(=O)N[C@@H](CCCNC(=N)N)C(=O)N[C@@H](Cc1c[nH]cn1)C(=O)N[C@@H](Cc1ccc(O)cc1)C(=O)N[C@@H](CC(C)C)C(=O)N[C@@H](CC(N)=O)C(=O)N[C@@H](Cc1c[nH]c2ccccc12)C(=O)N[C@@H](CC(C)C)C(=O)N[C@H](C(=O)N[C@@H](CCCNC(=N)N)C(=O)N[C@@H](CCC(N)=O)C(=O)N[C@@H](CCCNC(=N)N)C(=O)N[C@@H](Cc1ccccc1)C(N)=O)[C@@H](C)O
Turning to B2, the “NPY2R pEC50” value with NPY2R was 8.9 -Log(EC50, M). In addition, the “NPY5R pEC50” value in the experiment with NPY5R is 7.7 -Log(EC50, M).

On to PKPEAPGK([γGlu-γGlu-C20 diacid])DASPEEWNRYYADLRHYLNWLTRQR[Phe(4-F)]-NH2 [Compound A60], for which the “NPY2R pEC50” value with NPY2R is 10.3 -Log(EC50, M). Moreover, in the experiment with NPY5R, the “NPY5R pEC50” value is 8.6 -Log(EC50, M).

B3: Compound A64 (peptide)
peptide: PKPEAPK([γGlu-γGlu-C20 diacid])KDASPEELNRYYADARHYLNWLTRQRF-NH2
modifications: N-terminus assumed
SMILES: CC(C)C[C@H](NC(=O)[C@H](Cc1ccc(O)cc1)NC(=O)[C@H](Cc1c[nH]cn1)NC(=O)[C@H](CCCNC(=N)N)NC(=O)[C@H](C)NC(=O)[C@H](CC(=O)O)NC(=O)[C@H](C)NC(=O)[C@H](Cc1ccc(O)cc1)NC(=O)[C@H](Cc1ccc(O)cc1)NC(=O)[C@H](CCCNC(=N)N)NC(=O)[C@H](CC(N)=O)NC(=O)[C@H](CC(C)C)NC(=O)[C@H](CCC(=O)O)NC(=O)[C@H](CCC(=O)O)NC(=O)[C@@H]1CCCN1C(=O)[C@H](CO)NC(=O)[C@H](C)NC(=O)[C@H](CC(=O)O)NC(=O)[C@H](CCCCN)NC(=O)[C@H](CCCCNC(=O)CC[C@H](NC(=O)CC[C@H](NC(=O)CCCCCCCCCCCCCCCCCCC(=O)O)C(=O)O)C(=O)O)NC(=O)[C@@H]1CCCN1C(=O)[C@H](C)NC(=O)[C@H](CCC(=O)O)NC(=O)[C@@H]1CCCN1C(=O)[C@H](CCCCN)NC(=O)[C@@H]1CCCN1)C(=O)N[C@@H](CC(N)=O)C(=O)N[C@@H](Cc1c[nH]c2ccccc12)C(=O)N[C@@H](CC(C)C)C(=O)N[C@H](C(=O)N[C@@H](CCCNC(=N)N)C(=O)N[C@@H](CCC(N)=O)C(=O)N[C@@H](CCCNC(=N)N)C(=O)N[C@@H](Cc1ccccc1)C(N)=O)[C@@H](C)O
As for B3, the “NPY2R pEC50” value with NPY2R is 8.6 -Log(EC50, M). Moreover, the “NPY5R pEC50” value with NPY5R was 7.9 -Log(EC50, M).

B4: Compound A53 (peptide)
peptide: PKPEAPGKDASPEEWNRYYADLK([γGlu-γGlu-C20 diacid])HYLNWLTRQRF-NH2
modifications: N-terminus assumed
SMILES: CC(C)C[C@H](NC(=O)[C@H](CC(=O)O)NC(=O)[C@H](C)NC(=O)[C@H](Cc1ccc(O)cc1)NC(=O)[C@H](Cc1ccc(O)cc1)NC(=O)[C@H](CCCNC(=N)N)NC(=O)[C@H](CC(N)=O)NC(=O)[C@H](Cc1c[nH]c2ccccc12)NC(=O)[C@H](CCC(=O)O)NC(=O)[C@H](CCC(=O)O)NC(=O)[C@@H]1CCCN1C(=O)[C@H](CO)NC(=O)[C@H](C)NC(=O)[C@H](CC(=O)O)NC(=O)[C@H](CCCCN)NC(=O)CNC(=O)[C@@H]1CCCN1C(=O)[C@H](C)NC(=O)[C@H](CCC(=O)O)NC(=O)[C@@H]1CCCN1C(=O)[C@H](CCCCN)NC(=O)[C@@H]1CCCN1)C(=O)N[C@@H](CCCCNC(=O)CC[C@H](NC(=O)CC[C@H](NC(=O)CCCCCCCCCCCCCCCCCCC(=O)O)C(=O)O)C(=O)O)C(=O)N[C@@H](Cc1c[nH]cn1)C(=O)N[C@@H](Cc1ccc(O)cc1)C(=O)N[C@@H](CC(C)C)C(=O)N[C@@H](CC(N)=O)C(=O)N[C@@H](Cc1c[nH]c2ccccc12)C(=O)N[C@@H](CC(C)C)C(=O)N[C@H](C(=O)N[C@@H](CCCNC(=N)N)C(=O)N[C@@H](CCC(N)=O)C(=O)N[C@@H](CCCNC(=N)N)C(=O)N[C@@H](Cc1ccccc1)C(N)=O)[C@@H](C)O
For B4, in the experiment with NPY2R, the “NPY2R pEC50” value was 8.7 -Log(EC50, M). Further, the “NPY5R pEC50” value in the experiment with NPY5R is 7.3 -Log(EC50, M).

B5: Compound A54 (peptide)
peptide: PKPEAPGKDASPEEWNRYYK([γGlu-γGlu-C20 diacid])DLRHYLNWLTRQRF-NH2
modifications: N-terminus assumed
SMILES: CC(C)C[C@H](NC(=O)[C@H](CC(=O)O)NC(=O)[C@H](CCCCNC(=O)CC[C@H](NC(=O)CC[C@H](NC(=O)CCCCCCCCCCCCCCCCCCC(=O)O)C(=O)O)C(=O)O)NC(=O)[C@H](Cc1ccc(O)cc1)NC(=O)[C@H](Cc1ccc(O)cc1)NC(=O)[C@H](CCCNC(=N)N)NC(=O)[C@H](CC(N)=O)NC(=O)[C@H](Cc1c[nH]c2ccccc12)NC(=O)[C@H](CCC(=O)O)NC(=O)[C@H](CCC(=O)O)NC(=O)[C@@H]1CCCN1C(=O)[C@H](CO)NC(=O)[C@H](C)NC(=O)[C@H](CC(=O)O)NC(=O)[C@H](CCCCN)NC(=O)CNC(=O)[C@@H]1CCCN1C(=O)[C@H](C)NC(=O)[C@H](CCC(=O)O)NC(=O)[C@@H]1CCCN1C(=O)[C@H](CCCCN)NC(=O)[C@@H]1CCCN1)C(=O)N[C@@H](CCCNC(=N)N)C(=O)N[C@@H](Cc1c[nH]cn1)C(=O)N[C@@H](Cc1ccc(O)cc1)C(=O)N[C@@H](CC(C)C)C(=O)N[C@@H](CC(N)=O)C(=O)N[C@@H](Cc1c[nH]c2ccccc12)C(=O)N[C@@H](CC(C)C)C(=O)N[C@H](C(=O)N[C@@H](CCCNC(=N)N)C(=O)N[C@@H](CCC(N)=O)C(=O)N[C@@H](CCCNC(=N)N)C(=O)N[C@@H](Cc1ccccc1)C(N)=O)[C@@H](C)O
As to B5, the “NPY2R pEC50” value in the experiment with NPY2R is 7.7 -Log(EC50, M). In the experiment with NPY5R, the “NPY5R pEC50” value is 8 -Log(EC50, M).

For the molecule PKPEAPGK([γGlu-γGlu-C20 diacid])DASPEEWNRYYADLRHYLNWLTRQR[hPhe]-NH2 [Compound A61], the “NPY2R pEC50” value with NPY2R was 10 -Log(EC50, M). Further, the “NPY5R pEC50” value with NPY5R was 8.3 -Log(EC50, M).
